In the data set the target is IMP1 KH34 Y396F (Gallus gallus) (UniProt O42254). The data set is described as follows: BLI. The conditions noted are these: N6-methyladenosine at position 6; BLI: 10 mM Na2HPO4 pH 6.5, 50 mM NaCl, 1 mM TCEP, 2 mg/ml BSA, 0.005% Tween-20, 25 C; NMR: 80 uM protein, 37 C, NMR buffer not printed (protein in 10 mM …).
Chain of IMP1 KH34 Y396F (Gallus gallus) (O42254 387-573 Y396F): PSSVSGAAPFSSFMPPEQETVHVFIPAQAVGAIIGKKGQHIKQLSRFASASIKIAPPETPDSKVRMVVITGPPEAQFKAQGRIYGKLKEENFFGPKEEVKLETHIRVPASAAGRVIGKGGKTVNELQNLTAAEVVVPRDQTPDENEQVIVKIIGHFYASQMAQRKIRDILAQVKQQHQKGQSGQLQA

A word on the Kd: it is a measure of binding affinity in units of concentration. High values mean lower affinity, low ones higher affinity. As to ACTB zipcode RNA, m6A, the Kd came to 3.7 nM.

These data come from article PMC10484666.
